The target in assay [1] is SMYD2-F184A (human, UniProt Q9NRG4 1-433, F184A). Briefly: ITC; one-site model. A general note: Isothermal titration calorimetry measures the heat released or taken up as one component is titrated into another.
The target in assay [2] is T1, Full-length human SMYD2 (residues 1-433), wild type (human, UniProt Q9NRG4 1-433). The assay can be described thus: ITC; two-site model, KD2 (second site).
For assay [3], the target named is T1, Full-length human SMYD2 (residues …). Briefly: ITC; two-site model, KD1.
For assay [4] the target is unchanged. Briefly: ITC; one-site model (n = 2.01).

T1 sequence (Q9NRG4 whole entry, the tested form may be a part): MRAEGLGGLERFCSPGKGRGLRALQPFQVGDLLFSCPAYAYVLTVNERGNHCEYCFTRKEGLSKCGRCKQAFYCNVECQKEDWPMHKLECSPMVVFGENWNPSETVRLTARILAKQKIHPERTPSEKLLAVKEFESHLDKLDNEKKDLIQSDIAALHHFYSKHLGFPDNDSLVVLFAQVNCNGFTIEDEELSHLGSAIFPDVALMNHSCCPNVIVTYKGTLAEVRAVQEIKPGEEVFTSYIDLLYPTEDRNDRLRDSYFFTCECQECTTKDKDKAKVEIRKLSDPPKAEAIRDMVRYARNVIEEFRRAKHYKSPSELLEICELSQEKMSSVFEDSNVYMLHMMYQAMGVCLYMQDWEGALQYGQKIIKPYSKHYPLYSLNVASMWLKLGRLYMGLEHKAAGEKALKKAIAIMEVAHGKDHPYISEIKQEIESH
SMYD2-F184A, sequence (Q9NRG4 whole entry F184A, the tested form may be a part): as the sequence (Q9NRG4 whole entry, the tested form may be a part) above, with F184A counted along it

B1: PARP1 peptide (13-residue synthetic peptide, human PARP1 residues 522-534) (peptide)
peptide: RMKLTLKGGAAVD
As for B1, the Kd – broadly, a measure of binding affinity in units of concentration – was found to be 41.7 µM in assay [1], 18.2 µM in assay [2], 17.8 µM in assay [3] and 17.7 µM in assay [4].

The values are drawn from doi:10.1101/2024.12.03.626679 (2024).
